This assay addresses His-FliI(R33A) (Salmonella enterica) (UniProt P26465).

This is an account of results in article PMC8041783.

As for “His-FliI(R33A) (from UniProt P26465 1-456) (enzyme)”, the ATPase activity (Malachite Green assay, 4 mM ATP) at 17 to 85 nM FliI(R33A) (nmol of phosphate min^−1 μg^−1) came out at 1.21.
